In patent publication JP2023014062A (dated 2023):

How the values were obtained:
[1] = target: T1, SARS-CoV-2(従来株(武漢株))のSタンパク質のRBDタンパク質 (SARS-CoV-2(従来株(武漢株)), UniProt P0DTC2 322-536); assay: X-ray crystal structure of the RBD-Fab complex
T1 construct: range 322-536

[2] = target: T1, SARS-CoV-2(従来株(武漢株))のSタンパク質のRBDタンパク質; assay: ELISA, RBD coated at 2 μg/ml, Expi293 culture supernatant, HRP anti-human IgG

B1: 抗体NCV2SG48(Fab) (Fab, V domains shown)
VH: EVQLVESGGGLIQPGGSLRLSCAASGFIVSRNYMNWVRQAPGKGLEWVALIYSGGSTFYADSVKGRFTISRDNSKNTLYLQMNSLRAEDTAVYYCARDLVVYGLDYWGQGTLVTVSS
VL: AIQLTQSPSSLSASVGDRVTITCRASQGISSHLAWYQQKPGKAPKLLIFAASTLQSGVPSRFSGSGSGTDFTLTISSLQPEDFATYYCQHLNSNPPITFGQGTRLEIK
notes: also called Fab(抗体NCV2SG48)
- binding result [1]: binds

B2: 抗体NCV2SG53(Fab) (Fab, V domains shown)
VH: QVQMVESGGGLVRPGGSLRLSCAASGFTFSDYYMSWIRQAPGKGLEWISYISSSGSSMNYADSVKGRFTISRDNAKNSLFLQMNSLRAEDTAVYYCAREFDLTKIIMVPPYWGQGTLVTVSS
VL: AIQLTQSPSSLSASVGDRVTITCRASQGISSYLAWYQQKPGKAPKVLIYAASTLQSGVPSRFSGSGSGTDFTLTISSLQPEDFATYYCQQLKSYPLTFGGGTKVEIT
notes: also called Fab(抗体NCV2SG53)
- binding result [1]: binds

B3: 抗体NCV2SG53 (antibody, V domains shown)
VH: B2 VH
VL: B2 VL
- binding result [2]: binds
